Assay results as given in publication doi:10.1101/726935.

Target: EBOV VP35 WT oligomerization domain (Zaire ebolavirus, Yambuku-Mayinga) (UniProt Q05127)
Experiment: SEC-MALS

**Q.** “EBOV VP35 WT oligomerization domain (from UniProt Q05127 75-185) (domain or fragment)” was tested. Which stoichiometry N did it give?
**A.** 4
